According to US20260218282A1:

Molecular target: pMHC monomer containing HLA-A*02:01 restricted NY-ESO-1 C9V peptide (human)
Assay: capture of TCR-transduced PBMCs on pMHC-labeled nanovials (20 µg/ml pMHC), flow cytometry

fraction of bound live cells with NGFR expression: 93.9%
Substance: 1G4 TCR
